{
  "source": "paper PMC3401432",
  "molecules": {"B1": {"name": "MBP-AppA (full-length AppA tagged with maltose-binding protein) (natural protein)", "chain": "MQHDLEADVTMTGSDLVSCCYRSLAAPDLTLRDLLDIVETSQAHNARAQLTGALFYSQGVFFQWLEGRPAAVAEVMTHIQRDRRHSNVEILAEEPIAKRRFAGWHMQLSCSEADMRSLGLAESRQIVTVGRSLVADNTNIFSFDRIAAVRRFLSDVCAARTLAPDTPVEADTFALYALTEAQAGRSGRAKAVARLSDLLSTDPLGRLTEVEELLRAHAPTAADFARLFEACAERLTRALAEDRISRMQVTLAYSALQMALRRIHHLPDPQKSVGAVLVAGVPGHKPILEAALAAEMLRAVGWSTSVVHPESVAALAARLKTSRTSTLVVAPSLLEGTEQEADTLRFVSALRARTDLPGLSILVGGRLAQLPPSKLKDSGADAGFAHLALLPAALARVACPANADCCSMRACRMPASQCCDKRINPEFLLANVMPSVLTRISSRQDRRRSA"}, "B2": {"name": "AppA full length, GAL4 activation domain fusion (pGAD-T7-appA) (natural protein)", "chain": "B1 chain"}},
  "key": {"[1]": {"biological_target": "CryB, GAL4 binding domain fusion (pGBK-T7-cryB) (Rhodobacter sphaeroides)", "assay": "two-hybrid"}, "[2]": {"biological_target": "His-CryB, purified from E. coli (Rhodobacter sphaeroides)", "assay": "MST"}, "[3]": {"biological_target": "CryB, GAL4 binding domain fusion (pGBK-T7-cryB) (Rhodobacter sphaeroides)", "assay": "two-hybrid", "remark": "listed apart in the source"}},
  "note": "Read-outs that look alike come from different tables or passages of the source.",
  "data": [
    {"molecule": "SCHIC domain of AppA, GAL4 activation domain fusion (pGAD-T7) (domain or fragment)", "values": [
      {"measurement": "β-galactosidase activity, percent of the SV40 T antigen + p53 control", "setting": "[1]", "value": 8, "unit": "%"}
    ]},
    {"molecule": "B1", "values": [
      {"measurement": "Kd", "setting": "[2]", "value": 595, "unit": "nM"}
    ]},
    {"molecule": "B2", "values": [
      {"measurement": "β-galactosidase activity, percent of the SV40 T antigen + p53 control", "setting": "[3]", "value": 40, "unit": "%"}
    ]}
  ]
}
